Assay results taken from article PMC3307385.

Molecular target: mouse soluble recombinant SLLP1 (mouse) (UniProt Q9D9X8)
Test: SPR

Sequence of UniProt Q9D9X8 (Q9D9X8 95-221): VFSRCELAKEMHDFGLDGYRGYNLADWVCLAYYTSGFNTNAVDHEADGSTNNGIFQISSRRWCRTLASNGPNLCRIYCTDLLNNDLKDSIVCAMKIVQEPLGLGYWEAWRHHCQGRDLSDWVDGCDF

Kd: 0.32 nM
Substance: recombinant mouse SAS1B (V2), full length doublet (~51, ~50 kD) (natural protein)
